Experimental findings from patent publication US20230119066A1 (Bristol-Myers Squibb, published 2023) are described below.

The target of assay [1] is T1, CCR8 N-terminal peptide (SPR of Example 10) (human, sulfation not stated in Example 10; the panning peptide was biotinylated).
T1 construct: also called biotinylated CCR8 N-terminal peptide from Anaspec
Nature of the assay: SPR; 14S15h Fab fragment, humanized, affinity-matured.

Assay [2] has as its target T2, human C-C Motif Chemokine Receptor 8 (hCCR8) (human, UniProt P51685 1-355). Nature of the assay: cell-based or functional assay.
The target in assay [3] is T2, human C-C Motif Chemokine Receptor 8 …. Nature of the assay: cell-based or functional assay. The source holds these as a separate data set.
For assay [4] the target is unchanged. Nature of the assay: cell-based or functional assay. This is another data set of the same source.
Assay [5] shares this target. As to the kind of experiment: flow cytometry, binding to activated human Tregs, median EC50. Here is the method:
Activated Tregs prepared from previously isolated and expanded Tregs were stimulated for 2 days with anti-CD3/CD28 activation beads (ThermoFisher) in the presence of 100 units/ml of recombinant human IL-2. The Abs were serially diluted from a starting concentration of 30 μg/ml. An appropriate PE-conjugated secondary Ab (Jackson ImmunoResearch) against the primary anti-CCR8 Ab was applied, incubated for 15 min at 4° C., and then washed off. EC₅₀ values for the binding of selected anti-CCR8 mAbs to activated Tregs, was calculated using GraphPad Prism (GraphPad Software, La Jolla, Calif.).
A select subset of Abs having EC₅₀ values ranging from picomolar to nanomolar is presented in FIG. 11B, and the respective EC₅₀ values are provided in Table 4.

The target of assay [6] is T1, CCR8 N-terminal peptide (SPR of Example …). Nature of the assay: SPR; starting mouse Ab 9G10, before humanization. A general note: Surface plasmon resonance follows binding to a sensor surface in real time, without labels.

As usually defined, the Kd is the equilibrium constant for the complex coming apart. A higher Kd goes with lower affinity. A word on the EC50: it is the midpoint of the concentration-response curve. A higher EC50 goes with weaker potency.

B1: 14S15h Fab fragment (Fab, V domains shown)
VH: EVQLVESGGGLVKPGGSLRLSCAASGFRFGPYAMNWVRQAPGKGLEWVGRIRSKSNNYETYYADSVKDRFTISRDDSKNTLYLQMNSLKTEDTAVYYCVGYSDLYVLDYWGQGTLVTVSS
VL: DIVMTQTPPSLPVNPGEPASISCRSSKSLLHSQGNTFLYWYLQKPGQSPQLLIYRMSNLASGVPDRFSGSGSGSDFTLKISWVEAEDVGVYYCMQHLEYPFTFGPGTKVDIK
notes: Tested as a Fab fragment whose constant parts are not delimited
The molecule B1 returned a Kd in assay [1] of 0.64 nM.

B2: mAb 12F27 (antibody, V domains shown)
VH: QVQLVESGGGVVQPGRSLRLSCAASGFSFRSYGIHWVRQAPGKGLEWVAVISYEGSNKRYADSVKGRFTISRDNSKSTLSLQMNSLRAEDTAVYYCAKGRRPSGEGAFDIWGQGTMVTVSS
VL: DIQMTQSPSSLSASVGDRVTITCRASQGISSWLAWYQQKPEKAPKSLIYAASSLQSGVPSRFSGSGSGTDFTLTISSLQPEDFATYYCQQYNSFPPTFGQGTKVEIKR
As to B2, the “Median EC50 (pM), ADCC killing of activated Tregs by allogeneic NK cells” value (“Median EC50 (pM) … by allogeneic NK cells” below) in assay [2] came to 304000 pM.

B3: mAb 14S15, nonfucosylated chimeric mouse-human anti-hCCR8 (antibody, human IgG1, kappa, V domains shown)
VH: EVQLVEFGGGLVQPKGSLKLSCVVSGFRFNPYAMNWVRQAPGKGLEWLGRIRSKSNNYETYYADSVKDRFIISRDDSQKMVYLQMNNVKTEDTAMYYCVGYSDLYVLDYWGQGTSVTVSS
VL: DIVMTQAAPSVPVTPGESVSISCRSSKSLLHSNGNTFLYWFLQRPGQSPQLLIYRMSNLASGVPHRFSGSGSGTAFTLRISRVEAEDVGVYYCMQHLEYPFTFGSGTKLEIKR
notes: Chimeric version with nf human IgG1 Fc; also called 14S15-IgG1-nf; CCR8.2
On to B3, for which, in assay [3], the “IC50 (nM), blockade of calcium flux on CCR8-expressing cells” value is 1.33 nM. Further, the “EC50 (pM), cross-linking of CD16 expression reporter cells” value in assay [4] worked out at 8.02 pM. The “Median EC50 (pM) … by allogeneic NK cells” value in assay [2] was found to be 39.7 pM. In assay [5], this molecule yielded an EC50 of 0.252 nM.

B4: 9G10, starting mouse anti-CCR8 mAb of 14S15 and 14S15h (antibody, V domains shown)
VH: B3 VH
VL: DIVMTQAAPSVPVTPGESVSISCRSSKSLLHSNGNTFLYWFLQRPGQSPQLLIYRMSNLASGVPHRFSGSGSGTAFTLRISRVEAEDVGVYYCMQHLEYPFTFGSGTKLEIK
notes: also called starting mouse Ab; starting mouse mAb
B4 came in with a Kd in assay [6] of 1.4 nM.

B5: mAb 4A19, nonfucosylated humanized IgG1 anti-hCCR8 (antibody, V domains shown)
VH: QVQLVQSGAEVKKPGASVKVSCKASGYTFTDSEMHWVRQATGQGLEWMGAIQPETGGTAYNQKFKARVTMTRDTSISTAYMELSSLRSEDTAVYYCARRRRNFDYWGQGTLVTVSS
VL: DIVMTQTPLSLSVTPGQPASISCRSSQSLFHSSGNTYLHWYLQKPGQPPQLLIYKVSNRFSGVPDRFSGSGSGTDFTLKISRVEAEDVGVYYCSQSTHVPFTFGQGTKLEIKR
notes: hIgG1-nf, expressed in Expi293 Fut8-/- cells; also called CCR8-nf; A419
B5: the “IC50 (nM), blockade of calcium flux on CCR8-expressing cells” value in assay [3] worked out at 0.465 nM. In assay [4], the “EC50 (pM), cross-linking of CD16 expression reporter cells” value was determined as 0.69 pM. In assay [2], the “Median EC50 (pM) … by allogeneic NK cells” value stood at 13.1 pM. In addition, it took 1.65 nM to reach a half-maximal effect in assay [5] (EC50).
